Data taken from PMC12148439 (2025).

Legend:
[1] = target: T1, CitAGacS649 (chimeric protein: GacS649 with its PDC domain replaced by the PDC domain of CitA from K (Pseudomonas aeruginosa | Klebsiella …, UniProt P52687 55-173, amine-reactive AlexaFluor 488 label (in the MST))); test: MST; no citrate
[2] = target: T1, CitAGacS649 (chimeric protein: GacS649 …); test: MST; 0.01 M citrate

B1: RetSHK (histidine kinase region of the sensor histidine kinase RetS, residues 413-649) (domain or fragment)
chain: QTKAEFLAKISHEIRTPMNGVLGMTELLLGTPLSAKQRDYVQTIHSAGNELLTLINEILDISKLESGQIELDEVQFDLNALIEDCLDIFRVKAEQQRIELISFTQPQVPRVIGGDPTRLRQVVLSLLDNAFKQTEEGEILLVVALDDQGETPRLRIAVQDSGHPFDAKEREALLTAELHSGDFLSASKLGSHLGLIIARQLVRLMGGEFGIQSGSSQGTTLSLTLPLDPQQLENPTA
[1]
  Kd: 11 µM
[2]
  Kd: 46 µM
